Measurements from US20220041723A1 (published 2022).
Changes are numbered by the printed parent chain. Where two headings read alike, the source gives them in different places.

B1: 4-E03 (antibody, V domains shown)
VH: EVQLLESGGGLVQPGGSLRLSCAASGFTFSDYYMSWVRQAPGKGLEWVSGISWSSRDKGYADSVKGRFTISRDNSKNTLYLQMNSLRAEDTAVYYCTTDLARYWGQGTLVTVSS
VL: QSVLTQPPSASGTPGQRVTISCTGSSSNIGAGYDVHWYQQLPGTAPKLLIYGNDNRPSGVPDRFSGSKSGTSASLAISGLRSEDEADYYCAVWDDSLNGVVFGGGTKLTVLG
B2: 5-B07 (antibody, V domains shown)
VH: EVQLLESGGGLVQPGGSLRLSCAASGFTFSSYSMNWVRQAPGKGLEWVSAISGSGGSTYYADSVKGRFTISRDNSKNTLYLQMNSLRAEDTAVYYCARDRVEMNQWLADWGQGTLVTVSS
VL: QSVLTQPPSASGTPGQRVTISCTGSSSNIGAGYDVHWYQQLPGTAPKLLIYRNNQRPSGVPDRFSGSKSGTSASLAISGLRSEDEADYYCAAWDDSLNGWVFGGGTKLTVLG
B3: 2-F09 (antibody, V domains shown)
VH: EVQLLESGGGLVQPGGSLRLSCAASGFTFKAYSMSWIRQAPGKGLEWVSGISNTGGSTDFADSVKGRFTISRDNSKNTLYLQMNSLRAEDTAMYYCARLGYSGYDDRGMDVWGQGTLVTVSS
VL: QSVLTQPPSASGTPGQRVTISCSGSSSNIGSNYVYWYQQLPGTAPKLLIYGNSNRPSGVPDRFSGSKSGTSASLAISGLRSEDEADYYCQSYDSSLSGPVVFGGGTKLTVLG
B4: 2-C06 (antibody, V domains shown)
VH: EVQLLESGGGLVQPGGSLRLSCAASGFTFSSYAMSWVRQAPGKGLEWVSGISGSGGYIHYADSVKGRFTISRDNSKNTLYLQMNSLRAEDTAVYYCATYSSGLHDAFDIWGQGTLVTVSS
VL: B1 VL with G52D, D54N, N55K, V92A, V100W

How the values were obtained:
[1] = target: T1, human CTLA-4 expressed on cells (293T cells stably transfected with human CTLA-4); in vitro-activated human … (human, UniProt P16410 36-223); test: FACS
[2] = target: T1, human CTLA-4 expressed on cells (293T …); test: FACS; remark: listed apart in the source

| Binder | EC50 [1] [nM] | EC50 [2] [nM] |
| --- | --- | --- |
| B1 | 0.13 |  |
| B2 | 0.15 |  |
| B3 |  | 0.19 |
| B4 | 0.1 |  |
